First the molecules themselves.
B1: Pistol ribozyme (parent)
chain: GGGUCGUUGUUCCAUAAUCGCGUGGAUAUGGCACGCAAGUUUCUACCGGGCACCGUAAAUGUCCGACUGGAGCCGUUCGGGCGGCUAUAAACAGACCUCAGGCCCGAAGCGUGGCGGCACCUGCCGCCGGUGGUAAAAAAGAUCGGAAGAGCACACGUCU

The series covers variants of B1. The series can be described thus: aptazyme ON/OFF ratio, guanine; higher = stronger switching; co-transcriptional cleavage with and without guanine.
Take GGGUCGUACGCACAUAAUCGCGUGGAUAUGGCACGCAAGUUUCUACCGGGCACCGUAAAUGUCCGACUGGAGCCGUUCGGGCGGCUAUAAACAGACCUCAGGCCCGAAGCGUGGCGGCACCUGCCGCCGGUGGUAAAAAAGAUCGGAAGAGCACACGUCU [U8A G9C U10G U11C C12A]: the “aptazyme ON/OFF ratio” value amounted to 1.18.
In the case of GGGUCGUACGCGCAUAAUCGCGUGGAUAUGGCACGCAAGUUUCUACCGGGCACCGUAAAUGUCCGACUGGAGCCGUUCGGGCGGCUAUAAACAGACCUCAGGCCCGAAGCGUGGCGGCACCUGCCGCCGGUGGUAAAAAAGAUCGGAAGAGCACACGUCU [U8A G9C U10G U11C C12G], the “aptazyme ON/OFF ratio” value was determined as 1.14.
Regarding GGGUCGUACGCUCAUAAUCGCGUGGAUAUGGCACGCAAGUUUCUACCGGGCACCGUAAAUGUCCGACUGGAGCCGUUCGGGCGGCUAUAAACAGACCUCAGGCCCGAAGCGUGGCGGCACCUGCCGCCGGUGGUAAAAAAGAUCGGAAGAGCACACGUCU [U8A G9C U10G U11C C12U], the “aptazyme ON/OFF ratio” value is 1.05.
As for GGGUCGUACGCGAAUAAUCGCGUGGAUAUGGCACGCAAGUUUCUACCGGGCACCGUAAAUGUCCGACUGGAGCCGUUCGGGCGGCUAUAAACAGACCUCAGGCCCGAAGCGUGGCGGCACCUGCCGCCGGUGGUAAAAAAGAUCGGAAGAGCACACGUCU [U8A G9C U10G U11C C12G C13A], the “aptazyme ON/OFF ratio” value was found to be 1.27.
For GGGUCGUACGCGGAUAAUCGCGUGGAUAUGGCACGCAAGUUUCUACCGGGCACCGUAAAUGUCCGACUGGAGCCGUUCGGGCGGCUAUAAACAGACCUCAGGCCCGAAGCGUGGCGGCACCUGCCGCCGGUGGUAAAAAAGAUCGGAAGAGCACACGUCU [U8A G9C U10G U11C C12G C13G], the “aptazyme ON/OFF ratio” value was determined as 1.17.
In the case of GGGUCGUACGCGUAUAAUCGCGUGGAUAUGGCACGCAAGUUUCUACCGGGCACCGUAAAUGUCCGACUGGAGCCGUUCGGGCGGCUAUAAACAGACCUCAGGCCCGAAGCGUGGCGGCACCUGCCGCCGGUGGUAAAAAAGAUCGGAAGAGCACACGUCU [U8A G9C U10G U11C C12G C13U], the “aptazyme ON/OFF ratio” value was 1.19.
As for GGGUCGUACGAUCAUAAUCGCGUGGAUAUGGCACGCAAGUUUCUACCGGGCACCGUAAAUGUCCGACUGGAGCCGUUCGGGCGGCUAUAAACAGACCUCAGGCCCGAAGCGUGGCGGCACCUGCCGCCGGUGGUAAAAAAGAUCGGAAGAGCACACGUCU [U8A G9C U10G U11A C12U], the “aptazyme ON/OFF ratio” value worked out at 1.06.
GGGUCGUACGAUUAUAAUCGCGUGGAUAUGGCACGCAAGUUUCUACCGGGCACCGUAAAUGUCCGACUGGAGCCGUUCGGGCGGCUAUAAACAGACCUCAGGCCCGAAGCGUGGCGGCACCUGCCGCCGGUGGUAAAAAAGAUCGGAAGAGCACACGUCU [U8A G9C U10G U11A C12U C13U]: the “aptazyme ON/OFF ratio” value is 1.08.
On to GGGUCGUACGAUAAUAAUCGCGUGGAUAUGGCACGCAAGUUUCUACCGGGCACCGUAAAUGUCCGACUGGAGCCGUUCGGGCGGCUAUAAACAGACCUCAGGCCCGAAGCGUGGCGGCACCUGCCGCCGGUGGUAAAAAAGAUCGGAAGAGCACACGUCU [U8A G9C U10G U11A C12U C13A], for which the “aptazyme ON/OFF ratio” value was 1.12.
In the case of GGGUCGUACGAUGAUAAUCGCGUGGAUAUGGCACGCAAGUUUCUACCGGGCACCGUAAAUGUCCGACUGGAGCCGUUCGGGCGGCUAUAAACAGACCUCAGGCCCGAAGCGUGGCGGCACCUGCCGCCGGUGGUAAAAAAGAUCGGAAGAGCACACGUCU [U8A G9C U10G U11A C12U C13G], the “aptazyme ON/OFF ratio” value turned out to be 1.11.
On to GGGUCGUACGCUGAUAAUCGCGUGGAUAUGGCACGCAAGUUUCUACCGGGCACCGUAAAUGUCCGACUGGAGCCGUUCGGGCGGCUAUAAACAGACCUCAGGCCCGAAGCGUGGCGGCACCUGCCGCCGGUGGUAAAAAAGAUCGGAAGAGCACACGUCU [U8A G9C U10G U11C C12U C13G], for which the “aptazyme ON/OFF ratio” value was 1.18.
For the variant GGGUCGUACGCUUAUAAUCGCGUGGAUAUGGCACGCAAGUUUCUACCGGGCACCGUAAAUGUCCGACUGGAGCCGUUCGGGCGGCUAUAAACAGACCUCAGGCCCGAAGCGUGGCGGCACCUGCCGCCGGUGGUAAAAAAGAUCGGAAGAGCACACGUCU [U8A G9C U10G U11C C12U C13U], the “aptazyme ON/OFF ratio” value is 1.16.
As to GGGUCGUACGCUAAUAAUCGCGUGGAUAUGGCACGCAAGUUUCUACCGGGCACCGUAAAUGUCCGACUGGAGCCGUUCGGGCGGCUAUAAACAGACCUCAGGCCCGAAGCGUGGCGGCACCUGCCGCCGGUGGUAAAAAAGAUCGGAAGAGCACACGUCU [U8A G9C U10G U11C C12U C13A], the “aptazyme ON/OFF ratio” value turned out to be 1.13.
In the case of GGGUCGUACGGAUAUAAUCGCGUGGAUAUGGCACGCAAGUUUCUACCGGGCACCGUAAAUGUCCGACUGGAGCCGUUCGGGCGGCUAUAAACAGACCUCAGGCCCGAAGCGUGGCGGCACCUGCCGCCGGUGGUAAAAAAGAUCGGAAGAGCACACGUCU [U8A G9C U10G U11G C12A C13U], the “aptazyme ON/OFF ratio” value was found to be 1.21.
Turning to GGGUCGUACGGAGAUAAUCGCGUGGAUAUGGCACGCAAGUUUCUACCGGGCACCGUAAAUGUCCGACUGGAGCCGUUCGGGCGGCUAUAAACAGACCUCAGGCCCGAAGCGUGGCGGCACCUGCCGCCGGUGGUAAAAAAGAUCGGAAGAGCACACGUCU [U8A G9C U10G U11G C12A C13G], the “aptazyme ON/OFF ratio” value amounted to 1.14.
With GGGUCGUACGGAAAUAAUCGCGUGGAUAUGGCACGCAAGUUUCUACCGGGCACCGUAAAUGUCCGACUGGAGCCGUUCGGGCGGCUAUAAACAGACCUCAGGCCCGAAGCGUGGCGGCACCUGCCGCCGGUGGUAAAAAAGAUCGGAAGAGCACACGUCU [U8A G9C U10G U11G C12A C13A], the “aptazyme ON/OFF ratio” value turned out to be 1.13.
The figure for GGGUCGUACGGUGAUAAUCGCGUGGAUAUGGCACGCAAGUUUCUACCGGGCACCGUAAAUGUCCGACUGGAGCCGUUCGGGCGGCUAUAAACAGACCUCAGGCCCGAAGCGUGGCGGCACCUGCCGCCGGUGGUAAAAAAGAUCGGAAGAGCACACGUCU [U8A G9C U10G U11G C12U C13G] is 1.08; for GGGUCGUACGGUUAUAAUCGCGUGGAUAUGGCACGCAAGUUUCUACCGGGCACCGUAAAUGUCCGACUGGAGCCGUUCGGGCGGCUAUAAACAGACCUCAGGCCCGAAGCGUGGCGGCACCUGCCGCCGGUGGUAAAAAAGAUCGGAAGAGCACACGUCU [U8A G9C U10G U11G C12U C13U] it is 1.11.

These data come from the RNAGym collection of RNA variant scans (doi:10.1021/acssynbio.7b00057).
